Laboratory results published in US11793825B2, “Biomarkers for predicting responsiveness to decitabine therapy” (The Regents of the University of Michigan, priority 2014, dated 2023).
Entries after “also recorded” stand apart in the source; their conditions may differ.

Experiments:
[1] = tested on: CMML patients; test: FISM clinical trial cohort of CMML patients treated with Decitabine; format: in vivo, human; settings: DAC 20 mg/m2/day x 5 days
Protocol: To determine whether particular genetic or epigenetic abnormalities are associated with DMTi sensitivity or resistance in this disease a cohort of primary CMML cases was studied. Bone marrow mononuclear cells (BM MNC) were collected at the time of diagnosis from 40 patients with de novo CMML. All patients included in this study were enrolled in a clinical trial of the Fondazione Italiana per le Sindromi Mielodisplastiche (FISM) and treated with DAC single agent as front-line therapy (20 mg/m^2/day×5 days) and response was evaluated after 6 cycles of treatment. Responsive patients (n=20) were defined as those who achieved either complete remission (CR), marrow complete remission (mCR), partial remission (PR) or hematological improvement (HI), as defined by the 2006 International Working Group (IWG) response criteria in myelodysplasia (see, e.g., Cheson, B. D., Blood. 2006; 108(2):419-425). Patients with either stable or progressive disease (SD and PD, respectively) were considered as having primary resistance to DAC (n=20). […] Using MiSeq to sequence DNA isolated from the diagnostic BM MNC targeted re-sequencing of a panel of genes mutated at frequencies greater than 5% in CMML was performed: SRSF2, TET2, ASXL1, NRAS, DNMT3A, RUNX1, U2AF1, TP53, JAK2, KIT, KRAS, SF3B1, EZH2, IDH1, and IDH2. […]

[2] = tested on: CMML patients; test: GFM clinical trial cohort of CMML patients treated with Decitabine; format: in vivo, human; settings: DAC 20 mg/m2/day x 5 days
Protocol: In order to independently validate the predictive accuracy of the SVM classifier, a second cohort of patients on which to test its performance was identified. Twenty-eight additional diagnostic CMML specimens from patients enrolled in a clinical trial from the Groupe Francophone des Myelodysplasies (GFM), all of whom had been treated with the same DAC regimen of 20 mg/m^2/day×5 days were collected and subjected to ERRBS (Table 2, Table 3). Specimens in this cohort consisted of sorted monocytes from peripheral blood (PB) and the cohort included 12 responder and 16 non-responder patients. The SVM classifier was applied blindly to these samples, without any prior knowledge of the therapeutic response labels for the cohort. Due to the stochastic nature of ERRBS, the CpG coverage is never identical across all samples, thereby leading to missing values for some regions of interest. In effect, only 6 out of the 21 features were present in all 28 GFM cohort samples. Therefore, an SVM classifier was built on these six shared features by training it on the 39 samples of the FISM cohort and then applying the trained classifier on the GFM cohort. As shown in FIG. 8D and FIG. 11B, despite this limitation the 6-feature classifier was still capable of correctly predicting response for 20/28 patients in the GFM cohort (accuracy=71%). […]

[3] = tested on: primary human CD34+ cells; test: CD34+ cell liquid culture, live cell number and viability by trypan blue exclusion; format: cell-based; settings: 10 nM DAC daily for 3 days, with or without CXCL4/CXCL7 50 ng/mL each
Protocol: CD34+ cells were treated with one dose of CXCL4, CXCL7, or both (50 ng/mL each) or vehicle (PBS/0.1% BSA) and daily doses of 10 nM DAC for 3 days. After 3 days, live cell number (A) and viability (B) were assessed by trypan blue exclusion, and apoptosis (C) was analyzed by Annexin V and propodium iodide staining. The results shown are from one representative experiment out of two independent experiments.
Therefore, it was hypothesized that overabundance of CXCL4 and CXCL7 in the bone marrow microenvironment may act to overcome the effects of DAC. To test this, primary human CD34+ cells were cultured for 3 days in vitro with CXCL4 (50 ng/mL), CXCL7 (50 ng/mL) or a combination of both chemokines in either the presence or absence of low-dose DAC (10 nM) and then plated them in methylcellulose to test their clonogenic potential.
(§1) Cell culture and colony forming assays: CD34+ cells were isolated from cryopreserved BM MNC from femoral head specimens using the Miltenyi Biotec CD34 microbead isolation kit (San Diego, CA) per the manufacturer's instructions. For CMML cells, the cryopreserved BM MNC were rapidly thawed at 37° C. and treated with DNAse to prevent cell clumping. […] Live cell number and viability were determined by trypan blue exclusion. […] Colonies were counted after 12 to 15 days.

[4] = tested on: primary human CD34+ cells; test: Colony forming assay in methylcellulose; format: cell-based; settings: chemokine 50 ng/mL (each) plus 10 nM DAC for 3 days
Protocol: (§2) CD34+ cells were treated with one dose of CXCL4, CXCL7, or both (50 ng/mL each) or vehicle (PBS/0.1% BSA) and daily doses of 10 nM DAC for 3 days. After 3 days of in vitro treatment with DAC, the cells were plated in methylcellulose and incubated for 12-15 days before colonies were counted. Data represent mean+standard deviation (SD). […] Shown in the three panels are the results of three independent experiments. […] CMML MNC were treated in vitro for 72 h with 10 nM DAC alone or in the presence of 50 ng/mL of CXCL4, CXCL7, or both. Data represent mean+standard deviation (SD).
as §1, with “clumping. Cells were plated in pre-stimulation media (IMDM with 20% BIT (Stem Cell Technologies, Vancouver, BC, Canada), IL-6 (20 ng/mL), SCF (100 ng/ml), TPO (100 ng/mL), FLT3L (10 ng/mL); Peprotech, Rocky Hill, N.J.) and recovered overnight.” for “clumping.”

[5] = tested on: primary CMML cells (BM MNC); test: Viability of primary CMML BM MNC in liquid culture; format: cell-based, human; settings: chemokine 50 ng/mL plus 10 nM DAC, 72 h
Protocol: as §2
Finally, the ability of CXCL4 and CXCL7 to induce resistance in primary CMML cells was tested. BM MNC from diagnostic specimens collected from 3 patients known to be sensitive to DAC were placed in liquid culture and treated for 72 h with 10 nM DAC in the presence or absence of 50 ng/mL of CXCL4, CXCL7 or a combination of both. Viability was assessed after 72 hours.
as §1, with “instructions.” for “instructions. For CMML cells, the cryopreserved BM MNC were rapidly thawed at 37° C. and treated with DNAse to prevent cell clumping.”

[6] = tested on: bone marrow cells; settings: in vitro; cited from earlier work

Molecule	Median Survival ([1]; non-responders (n=20)) [months]	Median Survival ([1]; responders (n=20)) [months]	Median Survival ([2]; non-responders (n=16)) [months]	Median Survival ([2]; responders (n=12)) [months]	cell proliferation (live cell number) [3]	effect of chemokine on DAC-induced inhibition of colony formation [4]	effect of chemokine on the DAC-induced decrease in viability of primary CMML cells [5]	chemosensitivity of bone marrow cells to 5-fluorouracil [6]
Nc1ncn([C@H]2C[C@H](O)[C@@H](CO)O2)c(=O)n1 [DAC, Decitabine]	13.5	26.5	14.5	39				
CXCL4: chemokine CXCL4 (also known as PF4), Peprotech, used at 50 ng/mL (protein, UniProt P02776 32-101, looked up) Platelet factor 4: EAEEDGDLQCLCVKTTSQVRPRHITSLEVIKAGPHCPTAQLIATLKNGRKICLDLQAPLYKKIIKKLLES					did not affect cell proliferation	did not have a significant impact on DAC-induced colony inhibition	abrogated the effect of DAC; also recorded: this effect was lost	can reduce the chemosensitivity of bone marrow cells to 5-fluorouracil
CXCL7: chemokine CXCL7 (also known as PPBP), Peprotech, used at 50 ng/mL (protein, UniProt P02775 59-128, looked up, Neutrophil-activating peptide 2, chemokine CXCL7 (also known as PPBP), Peprotech, used at 50 ng/mL) Neutrophil-activating peptide …: AELRCMCIKTTSGIHPKNIQSLEVIGKGTHCNQVEVIATLKDGRKICLDPDAPRIKKIVQKKLAGDESAD					did not affect cell proliferation	did not have a significant impact on DAC-induced colony inhibition	abrogated the effect of DAC; also recorded: this effect was lost	can reduce the chemosensitivity of bone marrow cells to 5-fluorouracil
